± gives the uncertainty stated by the source.
Assay: protein stability index of a GFP-peptide fusion (yeast GPS) (PSI 1-4); higher = more stable; sorted into four equal gates, so the index is relative within each strain
Method in brief: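 For each peptide, the protein stability index sums the read frequency in every gate after multiplying it by the gate number. Read frequencies came from plasmids that were PCR-amplified from each gate and Illumina-sequenced, with reads assigned to strains by barcodes. The gates were four equal bins of GFP/Cherry fluorescence ratio applied to mid-log yeast in leucine-free medium carrying a pooled library of tiled 17-residue yeast protein peptides fused downstream of GFP on a Cherry-expressing plasmid.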

Sequence	protein stability index (doa10∆)	protein stability index (pdr5∆)	protein stability index (san1∆)	protein stability index (ubr1∆)
DGLGNVVDFTSLPEELK [YMR129W/POM152]	3.4 ± 0.096	3.47 ± 0.1	3.3 ± 0.046	3.42 ± 0.095
DGLIAPGVRVSGEDVII [RPB2]	3.05 ± 0.12	2.69 ± 0.085	3.29 ± 0.16	2.67 ± 0.095
DGNNANYIYAGYENGML [RPN14]	2.73 ± 0.1	2.75 ± 0.094	2.79 ± 0.083	2.96 ± 0.069
DGSKMLKRADYTAVDTA [RPN14]	3.58 ± 0.12	3.32 ± 0.11	3.53 ± 0.036	3.26 ± 0.079
DGTEYVLSSVREPDFWV [MED6]	3.49 ± 0.13			2.67 ± 0.12
DGTSTEKTFLHLPCTIE [RPN8]	2.7 ± 0.1	1.78 ± 0.055	2.1 ± 0.065	1.41 ± 0.044
DGWVKLTYKSELSKSRA [YMR153W/NUP53]	1.85 ± 0.062	1.88 ± 0.04	1.95 ± 0.083	1.84 ± 0.032
DHAIVTSPTMPDYYVSI [RPT2]	2.62 ± 0.11	2.67 ± 0.17	2.58 ± 0.063	2.86 ± 0.12
DHFLSMCQNPMQKPVPF [FAS1]	2.93 ± 0.18	3.01 ± 0.14		2.42 ± 0.081
DHGDGILLIDSEIARTY [RPN9]	2.73 ± 0.22	3.03 ± 0.3	3.29 ± 0.17	3.17 ± 0.24
DHNGVPFPQYPAGMNET [ITC1]	1.97 ± 0.12	2.59 ± 0.11	2.8 ± 0.19	2.42 ± 0.064
DIAFVLNNLPYKNEDVT [YCS4]	2.61 ± 0.053	3.08 ± 0.051	2.94 ± 0.037	3 ± 0.065
DICQIDTNAPVAATITS [SRB8]	2.29 ± 0.063	2.45 ± 0.083	2.36 ± 0.096	2.26 ± 0.049
DIFGANAASGSNSNVTN [YOR098C/NUP1]	2.11 ± 0.064	1.65 ± 0.054	1.64 ± 0.11	2.63 ± 0.079
DIILGQNIKAPSVKRQK [PRP8]	2.44 ± 0.081	2.35 ± 0.078	1.53 ± 0.16	2.51 ± 0.072
DIISGKIHSILPVMESL [YJR042W/NUP85]	2.85 ± 0.074	3.13 ± 0.11	2.84 ± 0.11	2.4 ± 0.062
DIPELSFFHQSNMQKSL [RPN3]	2.56 ± 0.065	2.13 ± 0.067	2.8 ± 0.068	2.87 ± 0.045
DIRDSSCQGNVIYRNSL [YMR129W/POM152]	3.5 ± 0.22	3.21 ± 0.087	3.38 ± 0.06	3.37 ± 0.084
DISGTMSGGGNHVAKGL [SMC4]	3.19 ± 0.2		3.25 ± 0.13	
DIYSHEYKVITSLQGTY [YMR129W/POM152]	1.89 ± 0.064	2.43 ± 0.07	2.65 ± 0.075	2.49 ± 0.048
DKGLLPYAIMETANEIL [RPO31]	2.95 ± 0.14	2.71 ± 0.19		2.25 ± 0.13
DKKEMTIYNNIREGQNQ [SIR3]	3.21 ± 0.056	3.37 ± 0.07	3.02 ± 0.041	3.27 ± 0.034
DKKSCSVDDVLSALDHI [DPB4]	3.29 ± 0.086	3.23 ± 0.089	3.31 ± 0.054	3.22 ± 0.044
DKQAEGTPLFTFGKKAD [YOR098C/NUP1]	2.43 ± 0.06	2.43 ± 0.078	2.5 ± 0.077	1.75 ± 0.066
DKQDGTAKPAFSFGAKP [YJL041W/NSP1]	3.24 ± 0.087	3.29 ± 0.077	3.22 ± 0.057	3.35 ± 0.086

Sequence	protein stability index (doa10∆)	protein stability index (pdr5∆)	protein stability index (san1∆)	protein stability index (ubr1∆)
DKYHPGYFGKVGMRYFH [RPL28]	3.23 ± 0.062	2.99 ± 0.072	2.99 ± 0.083	2.96 ± 0.044
DKYKLYPVRIPRLDTSK [YJR042W/NUP85]	3.01 ± 0.075	2.9 ± 0.075	3.12 ± 0.059	3.24 ± 0.065
DLASSKEVLAKIVDLLA [RPN5]	2.85 ± 0.21	3.43 ± 0.24	2.98 ± 0.091	2.97 ± 0.11
DLAVCATIIGIISTAIA [ECM29]	1.95 ± 0.052	2.07 ± 0.043	1.99 ± 0.054	1.95 ± 0.029
DLEEVKRFQVLYPCYFD [SEC65]	2.28 ± 0.14	2.75 ± 0.088	2.42 ± 0.25	2.34 ± 0.12
DLKESMVKGLLKSFTES [ECM29]	3.34 ± 0.26	3 ± 0.19	2.8 ± 0.1	3.34 ± 0.096
DLLKNAPLFKKNSSRPM [SMD3]	2.27 ± 0.047	1.76 ± 0.043	1.77 ± 0.11	1.62 ± 0.034
DLSGADIQAMCTEAGLL [RPT2]	2.73 ± 0.12	3.48 ± 0.13	3.46 ± 0.05	3.42 ± 0.062
DLSISALLGDKIYNFGE [RPN9]	3.08 ± 0.068	3.11 ± 0.065	3.15 ± 0.061	3.12 ± 0.091
DLSLIVKARHGGCDYIF [CYT1]	2.74 ± 0.097	2.94 ± 0.1	2.72 ± 0.1	2.46 ± 0.061
DLSRNGRNGSNGNDESS [NUT1]	3.19 ± 0.078	3.33 ± 0.09	3.18 ± 0.059	3.14 ± 0.068
DLVRDIDIDKLIQLGVK [SRP72]			2.71 ± 0.15	
DLYHFALNYENEAGRKL [SNF2]	2.94 ± 0.16	3.13 ± 0.098	3.26 ± 0.083	3.76 ± 0.26
DMDPLAVSAASVVSMSN [SIR2]	1.67 ± 0.065	2.31 ± 0.12	1.71 ± 0.18	2.19 ± 0.072
DMQSSVDTGLQPQHPHY [YLR018C/POM34]	2.56 ± 0.043	2.86 ± 0.039	2.96 ± 0.036	2.956 ± 0.029
DNDSLTDLESLSSGESN [SIR4]	3.15 ± 0.096	3.31 ± 0.12	3.07 ± 0.074	3.09 ± 0.073
DNEGVASKSKKKFNMGK [RPC53]	3.33 ± 0.091	3.12 ± 0.13	3.15 ± 0.08	3.42 ± 0.08
DNEQNLESDFVTGASQF [PRE2]	2.92 ± 0.095	3.33 ± 0.098	3.23 ± 0.077	2.96 ± 0.076
DNGESAFRTLRLARSEK [RPL13A]	3.39 ± 0.24	3.51 ± 0.15		3.31 ± 0.084
DNHSGDATANATANATA [DSN1]	3.22 ± 0.12	3.08 ± 0.064	3.32 ± 0.089	3.13 ± 0.071
DNKMDSVKEDVKNNQEL [SMC4]	2.85 ± 0.14	3.02 ± 0.084	2.51 ± 0.17	3.36 ± 0.14
DNNNGDDDDEDDDEIVM [SKP1]	3.04 ± 0.065	2.93 ± 0.052	2.89 ± 0.04	2.99 ± 0.048
DNNYNTAETNNKVHETS [YDL088C/ASM4]	2.99 ± 0.078	2.92 ± 0.069	2.78 ± 0.052	2.81 ± 0.051
DNPLRQIPHFNNKILEK [BRR2]	3.08 ± 0.092	3.1 ± 0.084	3.08 ± 0.086	3.19 ± 0.08
DNSATSYYELETIIFDS [RRI1]	3.19 ± 0.076	3.17 ± 0.055	3.11 ± 0.042	3.06 ± 0.041

Sequence	protein stability index (doa10∆)	protein stability index (pdr5∆)	protein stability index (san1∆)	protein stability index (ubr1∆)
DNSFNELTDNMSDFVPI [MCD1]	2.95 ± 0.082	3 ± 0.089	2.92 ± 0.052	3.23 ± 0.064
DNVQANDPAREKFSSFI [SNF12]	2.94 ± 0.11	3.01 ± 0.086	3.1 ± 0.069	3.11 ± 0.043
DNVSSQQMHEVRKELRG [RPP0]	2.4 ± 0.14	2.45 ± 0.18		2.82 ± 0.13
DPDLGLDLMFDEVYVQN [YJL039C/NUP192]	3.06 ± 0.13	3.04 ± 0.11	2.93 ± 0.11	2.85 ± 0.038
DPFKTSSFNKRSKFLST [IRR1]	2.15 ± 0.074	2.46 ± 0.053	2.04 ± 0.082	2.12 ± 0.057
DPFSDVDDDQDYVVAPG [GRR1]	2.56 ± 0.12	2.17 ± 0.2	1.74 ± 0.19	3.55 ± 0.24
DPLAKVNVLLQSYFSQL [BRR2]	1.28 ± 0.049	1.78 ± 0.054	1.58 ± 0.092	1.54 ± 0.05
DPNIKVNDTVKIDLASG [RPS4A]	2.81 ± 0.079	2.75 ± 0.063	2.73 ± 0.087	2.41 ± 0.053
DPTLTTTTSFTTSEATA [RPN4]	2.85 ± 0.075	2.98 ± 0.067	2.58 ± 0.057	2.92 ± 0.066
DPWNKLKHTDYWYEQDS [RPB3]				2.99 ± 0.12
DQDKVNFASGDNNTASN [RPB3]	2.85 ± 0.16	2.36 ± 0.14		2.5 ± 0.18
DQMVVGWYHSHPGFGCW [RPN11]	2.57 ± 0.079	2.92 ± 0.063	2.37 ± 0.069	2.21 ± 0.087
DQYLWYEADQRKLFPNW [PRP8]				3.13 ± 0.19
DRDESSPYAAMLAAQDV [RPS14A]	3.02 ± 0.088	3.21 ± 0.072	2.55 ± 0.09	3.27 ± 0.078
DRFIELISDQLLEFFEL [YML103C/NUP188]	2.56 ± 0.067	2.42 ± 0.053	2.4 ± 0.053	2.74 ± 0.049
DRKIEFPPPSVAARAEI [RPT6]	2.02 ± 0.094	2.36 ± 0.11	1.83 ± 0.096	1.39 ± 0.052
DRKNRAPPQRPRFNREN [RPS26A]	2.81 ± 0.11	2.64 ± 0.082	3.29 ± 0.11	3.02 ± 0.091
DRMDVDEDESQNIAQSS [HRT1]	2.37 ± 0.072	2.66 ± 0.062	2.21 ± 0.051	2.43 ± 0.05
DRVAKVLTYPEKVTRYN [RPO31]	2.87 ± 0.12	2.92 ± 0.14	2.94 ± 0.29	2.98 ± 0.17
DSALRYSILGDRFKYRS [POP4]	3.27 ± 0.18	3.04 ± 0.23	3.23 ± 0.098	
DSDGTRLKGDIFCVGSG [PRE2]	2.88 ± 0.057	2.87 ± 0.057	2.93 ± 0.091	2.45 ± 0.061
DSESDSDSETNHKSKDN [SKP1]	2.75 ± 0.053	3.04 ± 0.051	3 ± 0.039	3.1 ± 0.044
DSFIEKIIPKDISATQL [ITC1]	2.96 ± 0.1	3.17 ± 0.12	3.07 ± 0.086	3.13 ± 0.085
DSFKYEPLAPGNDNLIK [YLR335W/NUP2]	2.61 ± 0.061	2.75 ± 0.045	2.63 ± 0.045	2.85 ± 0.044

Reference: the supplement of paper PMC9732359
